Assay results as given in the DeepSol protein solubility set.

Assay: soluble on expression in E. coli; label from the status in PepcDB or PDB records

MCSISRGKLSTVLKSTSSCIFENLAYEEHIFRTHNVAQNGEILLMWSNRPAVVIGRHQNPWIEVNIPYANKNNIQIVRRHSGGGTVYHDLGNLNISLLTTHAQHCRPKNLKFISDALNQQFSVKIVPNKRDDMELHPGERKCSGTAARIARGQAYHHLTLLVGADLQVLSKSLKSPWRDKIESNATRSVRAPAVGFLKQDDANANVEQSKLAIVEAYRKLFEESHIKTVNVAEEVKKNAEISKIFDELKAWKWIYGKSPKFQYSRENKSIIEMMRTAHKDREPWRDIRRMSKWQGVRVCDEPSPWYMSIPTPFSQFHNVLPEEQEEMVFTELKLFLVGNQTENIRIDEYDKHDLPISILANISFDPFIRSELERFHDILVTVATIKICCYAITHDSVTFSSISSAVASTIEKKVNGFITKICTKLSGSTEANQQMNQLLREMHTIHESLNFYNGIVKSIYLDQLIGGQVLSLLDSKRRHVFSGNVVQNLDDVFQAGWKVFARSIGRLVCKFEADHMDYEFVIWSTKQMTDSQCKTLVPSNPSRQIKSSRYVVIESLCPDFFKKYLDILVRCAEFGDSAKSDSSLRRSTSKKINESESVESVMEDVRNVDWSNLDVATTVRMLVQFSRKESACLLREITSATNVDQAIRDIHDLLIKGSCAHDVMLFGLKADILQKPIDEVGNIRMKKLTNDVLGAAAEKHHPFWKYFSFVIDKQNVFEMLGQRTSLGGNADNLRDNVTPMLFECISVKMDCPIEIEPIISMKAVFILTPVFRIWIQLHVASYTIANYRDSIRGQMPSRSLGDIAMKKHLMHALDAEISSIKQKWVGYVDLLINLYYERIQKAASLDEYTECQDILASDVTNMMGISELSQLENIKDILNIIWNYDNADSNLADLIADFEEVQSRARMDVVVA
soluble on expression in E. coli: not soluble

MGSDKIHHHHHHMSDKTNLSHNVVNKEEFAGDPKPHPAAYTLVREDKGLGSTPKLPLETSYVKGLLKHDKFFQKALSNPIVAREFFEEYLPTEIKALFSPTTLTLENDSFIDPNLKESITDVLYSARINNRDCYIYILCEHQSSSDPHMAFRLFKYMLNIAEKHLISHPDSKKFPFIYPLVYSNDHKKYTAPLNLWDLFENSELVKDTWSNNYQLISLRDISDDKLKENPWLAPLQILMKYIHKPNVFDKWQEISGCLATIAASSSGIEYIKSALSYSLTKI
soluble on expression in E. coli: not soluble

MRTHDDTWDIKTSVGATAVMVAAARAVETDRPDPLIRDPYARLLVTNAGAGAIWEAMLDPTLVAKAAAIDAETAAIVAYLRSYQAVRTNFFDTYFASAVAAGIRQVVILASGLDSRAYRLDWPAGTIVYEIDQPKVLSYKSTTLAENGVTPSAGRREVPADLRQDWPAALRDAGFDPTARTAWLAEGLLMYLPAEAQDRLFTQVGAVSVAGSRIAAETAPVHGEERRAEMRARFKKVADVLGIEQTIDVQELVYHDQDRASVADWLTDHGWRARSQRAPDEMRRVGRWVEGVPMADDPTAFAEFVTAERL
soluble on expression in E. coli: soluble

MGHHHHHHSHMECETDEQKQGSDENMSECETSSVCSSSDTGLFTNDEGRQGDDEQSDWFYEGECVPGFTVPNLLPKWAPDHCSEVERMDSGLDKFSDSTFLLPSRPAQRGYHTRLNRLPGAAARCLRKGRRRLVGKETSINTLGTERISHIISDPRQKDFWLPSAGKRERNQFNPLSPLYSLDVLADASHRRCSPAHCSARQANVHWGPPCSRVIKRKRKPVATASLSSPSAVHMDAVEPTTPASQAPKSPSSEWLVRTSAAEKATDATTATFFKMPQEKSPGYS
soluble on expression in E. coli: not soluble

MSLSSKKLGVILYGPPASGKDTVAQALSELDARYGQFARLKVGSGRTTRYRMGTAEQLHDLEAAGAAIYTNSRYGNTYVIDRPGMDSAFEAGVPVVHLGQIDGIRALVDGYTADWAVVLLWCSQEVTAQRSAGRGDSDTTARLAAWQATREDLDAHPDMRWDLTVDTEATAAEESARLIDQLLHARAGVTEGHHHHHH
soluble on expression in E. coli: soluble

MLVRLGYVAMSVHLKNASPSQTMTYAQFQKLDDRDAAIRKLERIANSNLENCLRLLKHNKGHDISFFRLSSKLIPLANHEELLEWNYIRPLKENLKKLGEYAVHMNMRIDFHPDHFVVLNSPEESVFKQSVKTLQMHKKLLKGMGIEHKQRCVLHVGGGYKDKELALERFIENWSNVPRGIQEMIILENDDTTFTLEETLYLGEKLDIPVVFDLHHHMMNNEQEDWYEDWARVVHTWETSLLPIKMHISSPREGKDPRAHADYINVDAFLSFLRRIKGSVPQIDCMIEAKMKDESLFQLMRDLSEQVDVEIIDGASFYIK
soluble on expression in E. coli: not soluble

GPGSMQLQSRAPEHFSTPFFSSPSSSVAYESGCSLDALERLVHFTGAGADACLYAVHPPQAKGTDSAALTPTTEGLRYWLNPSVRARPTTATCEITNLGPPFFASTSTAVLRISATPLFVDGRCFPTRCVVSLATSAQRLDGVSLRPVVVTEWNLTASGAAGVCTTTVPLRTLYHLAVLISSSAPATGVEEVRLYLHLRFMGCSDGSDTHRIAAVRLRYEQLGTAAEVLPQLLQRRQRAAAHVMLPSPYDVKYHSEGRFTRAGAPLEEVEVGVIAGSSTATSSGRKDMGDDAGKSLFVGAKERRTHTSPPSSTRMRSDGCETRGDRRRGRAPRGC
soluble on expression in E. coli: soluble

MATTSAQTSPTEFGAGLPEAEDHSESAEPQSVEAEVIDERYADVWEKIQHARTIDVHDDAEVRKQRNFFDDKQKFMTQVTQRAEPFLYYIVSQLEARNMPLELALLPIVESGYNPLAQANGPAGLWQMIPATGRNFGLTINSAYDGRKDALASTDAVLDYLQHLYNTLGNDWINAVAGYNSGELVIKAAIDRNKAKGKPTDFWSLNIPARQVQTVPKWLAFIQIIREPSHYNLKVMPIANRPFLERLPAPNGVEISQIANAAGLTKAEFKTYNPGYRQSVIPSKGKYQIALPIENIGHYQENQHKLYAQKRYDSQTYIVKSGDSLGTIAAKFDLSVKELKQANNLTSDRLKIGQELTLLTPMAANDNEPEPVKTKANTDKSSTKANASSTKATSSKSTDKPVAKAKTYKVKSGDSLDKIARKSKVKLADLMKWNQLNAKSIIKPGQELKISELEHHHHHH
soluble on expression in E. coli: not soluble

MGSDKIHHHHHHMIAVLDMGTNSFILLVVSEKGETILEEVHEVGIASGNLEKAKEVFKECVEKAEKMGAELHIFGTAFFRKHPDIFQQITGGRGEILPEEKEAYYSYISVAKDFGKKDILVADLGGGSLELAWKDGYVSLELGTHVLNRTFSLTLPYIEPVDGIVEYVMKRLPEVKKDELFGVGGSFVALAALMKGKWDLEILHGSVLKLEEVEKLVDKIKRMSFEDVKNLKVLPEGREKTILAGGIVTIALLRKYSPRMTVSTRGYRYGIVWEILEKRWRARGDSNPQPPDPQSGALSN
soluble on expression in E. coli: not soluble

MTQAEIKLCSLLLQEHFGEIVEKIGVHLIRTGSQPLRVIAHDTGTSLDQVKKALCVLVQHNLVSYQVHKRGVVEYEAQCSRVLRMLRYPRYIYTTKTLYSDTGELIVEELLLNGKLTMSAVVKKVADRLTETMEDGKTMDYAEVSNTFVRLADTHFVQRCPSVPTTENSDPGPPPPAPTLVINEKDMYLVPKLSLIGKGKRRRSSDEDAAGEPKAKRPKYTTDNKEPIPDDGIYWQANLDRFHQHFRDQAIVSAVANRMDQTSSEIVRTMLRMSEITTSSSAPFTQPLSSNEIFRSLPVGYNISKQVLDQYLTLLADDPLEFVGKSGDSGGGMYVINLHKALASLATATLKSVVQERFGSRCARIFRLVLQKKHIEQKQVEDFAMIPAKEAKDMLYKMLSENFMSLQVGCQ
soluble on expression in E. coli: not soluble

MGHHHHHHSHNEPEDSKLRFETYQLIWQQMKSENERLQEELNKNLFDNLIEFLQKSHSGFQKNSRDLGGQIKLREIPTAALVLGVNVTDHDLTFGSLTEALQNNVTPYVVSLQAKDCPDMKHFLQKLISQLMDCCVDIKSKEEESVHVTQRKTHYSMDSLSSWYMTVTQKTDP
soluble on expression in E. coli: not soluble

DRHVDTHSEVLIFEVIPADDFLQQQLQITVQDRVWHVKRVRYRKQKPMALEETWMPLALFPDLTWQVMENSKYHFIEEVKKMVIDRSEQEIIPLMPTEEMSRLLNISQTKPILEKVSRGYLVDGRVFEYSRNAFNTDDYK
soluble on expression in E. coli: not soluble

DAKEKRLREIQFEKEMIERDMREYRGFSRAVRAVFEEKERFPGLVDVVSNLIEVDEKYSLAVSVLLGGTAQNIVVRNVDTAKAIVEFLKQNEAGRVTILPLDLIDGSFNRISGLENERGFVGYAVDLVKFPSDLEVLGGFLFGNSVVVETLDDAIRMKKKYRLNTRIATLDGELISGRGAITGGREERSSNVFERRIKLKHLEQEMEETERQI
soluble on expression in E. coli: soluble

MGSDKIHHHHHHMLTTCKSVLKLPYLEKIKVVAGEKGLNRIITWVQVVEYPEYSKWLKGGELILISGIAIKNNINSLVNFIRDINSRSLSGIVISIGPYIKEIPKEVIEIGNQLDFPIFEIPFEVKFIDVSQSICKAIFANKVNQESMENFMKDIIFRDFTFSEDILSRAVAYGYNPKTKYISFVVELHNEKDMLECDLKTKQYIEQIVIEVLGEWNKRSIHIMQYNSIILMLPKNEKRTIKNIAMNIIEEIISKAKNTSVNIGVGGEFSELRDFKISVSEAHRCLKVLKLNNDNNTVISYDELGIYKLFFQMDNLEEMKKFYLDVLKKLIDYDSKNTTELMNTLEMYIKESTNINRTAEKLFIHRNTLKYRIRRIEEITKCSLKDVNVLFNFDTALKIKKFLTMENAV
soluble on expression in E. coli: not soluble

MSLDWNRLKPTINQKVSAELNRPFAIRGDLGVVWERQKQETGWRSWVPWPHVHAEDIILGNPPDIPEVTMVHLPRVEATLAPLALLTKTVWLPWIKLEKPDARLIRLSEKNNNWTFNLANDDNKDANAKPSAWSFRLDNILFDQGRIAIDDKVSKADLEIFVDPLGKPLPFSEVTGSKGKADKEKVGDYVFGLKAQGRYNGEPLTGTGKIGGMLALRGEGTPFPVQADFRSGNTRVAFDGVVNDPMKMGGVDLRLKFSGDSLGDLYELTGVLLPDTPPFETDGRLVAKIDTEKSSVFDYRGFNGRIGDSDIHGSLVYTTGKPRPKLEGDVESRQLRLADLGPLIGVDSGKGAEKSKRSEQKKGEKSVQPAGKVLPYDRFETDKWDVMDADVRFKGRRIEHGSSLPISDLSTHIILKNADLRLQPLKFGIAGGSIAANIHLEGDKKPMQGRADIQARRLKLKELMPDVELMQKTLGEMNGDAELRGSGNSVAALLGNSNGNLKLLMNDGLVSRNLMEIVGLNVGNYIVGAIFGDDEVRVNCAAANLNIANGVARPQIFAFDTENALINVTGTASFASEQLDLTIDPESKGIRIITLRSPLYVRGTFKNPQAGVKAGPLIARGAVAAALATLVTPAAALLALISPSEGEANQCRTILSQMKKEGHHHHHH
soluble on expression in E. coli: soluble

MGSDKIHHHHHHMEKRQSIKDIEANGDVRGLFLLGAATLNQARNGPFWRLELRDATGTMEAKIWSPQSQAYPDLAPGQIVDLEGRSGTYRDRVEVTVERLRTLGEAEQASLDISQFLPASERPAAEMLEELERLCREVFTHAPWRKFVLGVLRDDDVRPRLLVAPAAKAVHHAFVGGLVEHILSVTRLCLHLAEHYPELDRQALVAGAIFHDIGKVWELTGGLANDYSDEGRLLGHIHIGLERIEPHLRKSGLEPELVMHFKHLILSHHGELEYGSPKRPKTAEAMVLHYADNIDAKMAQMRGLFANMGEGETGWSPYQNTLQRFLYRPARTPEPVATTRRRRGTPEVEQCSLLSKA
soluble on expression in E. coli: not soluble

MLLSVPLLLGLLGLAAADPAIYFKEQFLDGDAWTNRWVESKHKSDFGKFVLSSGKFYGDLEKDKGLQTSQDARFYALSAKFEPFSNKGQTLVVQFTVKHEQNIDCGGGYVKLFPSGLDQKDMHGDSEYNIMFGPDICGPGTKKVHVIFNYKGKNVLINKDIRCKDDEFTHLYTLIVRPDNTYEVKIDNSQVESGSLEDDWDFLPPKKIKDPDAAKPEDWDERAKIDDPTDSKPEDWDKPEHIPDPDAKKPEDWDEEMDGEWEPPVIQNPEYKGEWKPRQIDNPDYKGTWIHPEIDNPEYSPDANIYAYDSFAVLGLDLWQVKSGTIFDNFLITNDEAYAEEFGNETWGVTKAAEKQMKDKQDEEQRLKEEEEDKKRKEEEEAEDKEDDDDRDEDEDEEDEKEEDEEESPGQAKDEL
soluble on expression in E. coli: soluble
